{"source": "patent US20220125770A1", "about": "“COMBINATION THERAPY OF ALK-POSITIVE NEOPLASIA” (Academisch Medisch Centrum, priority 2019, published 2022)", "key": {"[1]": {"test_system": "MES-type neuroblastoma cells", "assay": "Cell viability (MTT) assay, MES-type cells of isogenic cell line pairs", "assay_type": "cell-based, human", "procedure": "[…] Seeding densities were optimized for each cell line so that the control, non-treated cells would reach 70-80% confluence by the end of the experiment. […] Metabolic activity was measured by 3-(4,5-dimethylthiazol-2-yl)-2,5-diphenyltetrazolium bromide (MTT) assay, according to the manufacturer's instructions with minor modifications. Sextuple or triplicate measurements were used for each experimental condition. Two-sided t-tests assuming equal variance were used to determine significance. Experiments were repeated at least twice."}, "[2]": {"test_system": "ADRN-type neuroblastoma cells", "assay": "Cell viability (MTT) assay, ADRN-type cells of isogenic cell line pairs", "assay_type": "cell-based, human", "procedure": "Cells were plated in 96-well plates, one day before the addition of Lorlatinib (HY-12215, MedChemExpress) and/or TRAIL (Peprotech) to the culture medium. Seeding densities were optimized for each cell line so that the control, non-treated cells would reach 70-80% confluence by the end of the experiment. […] Metabolic activity was measured by 3-(4,5-dimethylthiazol-2-yl)-2,5-diphenyltetrazolium bromide (MTT) assay, according to the manufacturer's instructions with minor modifications. Sextuple or triplicate measurements were used for each experimental condition. Two-sided t-tests assuming equal variance were used to determine significance. Experiments were repeated at least twice."}, "[3]": {"test_system": "mixed culture of SH-SY5Y-GFP (ADRN-type) and SH-EP2-RFP (MES-type) cells", "assay": "Flow cytometry of mixed cultures of SH-EP2-RFP and SH-SY5Y-GFP cells", "assay_type": "cell-based, human", "details": "120 hours, relative to DMSO control", "procedure": "GFP and RFP labelled cells were plated at given densities (see Figure description), collected by trypsin treatment, washed twice with FACS buffer and analysed using flow cytometer (BD biosciences) and BD Accuri C6 software."}, "SH-EP2 cells (MES-type)": {"test_system": "SH-EP2 cells (MES-type)", "assay": "3D spheroid co-culture of SK-N-AS-TRAIL cells with SH-EP2-GFP cells", "assay_type": "cell-based, human", "details": "doxycycline-induced TRAIL expression, 48 hours, 3D model", "procedure": "(§1) Spheroid assays were performed as described^28. A suspension of 10000 cells of 3:1 SKNAS-TRAIL:SH-EP2-GFP or 3:1 SKNAS-TRAIL:IMR32-GFP was added in triplicate to 96 well round bottom suspension plates. After 48 hours incubation with 0 or 300 ng/ml doxycycline bright-field and fluorescent images of the 3D cultures were taken."}, "[4]": {"test_system": "SK-N-SH (ALK-F1174L) and NBL-W (ALK-R1275L) cell lines", "assay": "Cell viability (MTT) assay, cell lines with heterogeneous MES and ADRN composition", "assay_type": "cell-based, human", "details": "Lorlatinib-only or TRAIL-only (100 ng/ml), 120 hours", "procedure": "Seeding densities were optimized for each cell line so that the control, non-treated cells would reach 70-80% confluence by the end of the experiment. […] Metabolic activity was measured by 3-(4,5-dimethylthiazol-2-yl)-2,5-diphenyltetrazolium bromide (MTT) assay, according to the manufacturer's instructions with minor modifications. Sextuple or triplicate measurements were used for each experimental condition. Two-sided t-tests assuming equal variance were used to determine significance. Experiments were repeated at least twice."}, "SK-N-AS-TRAIL xenografts": {"test_system": "SK-N-AS-TRAIL xenografts", "assay": "SK-N-AS-TRAIL xenograft tumour growth", "assay_type": "in vivo, NMRI-Foxn1nu/nu mice", "details": "TRAIL induced by doxycycline, established tumours 200 mm^3, five-week doxycycline stimulation", "procedure": "For the SK-N-AS-TRAIL xenograft experiments, 1×10^6 cells were suspended in 200 μl of a 50% Matrigel solution in PBS and subcutaneously injected in NMRI-Foxn1nu/nu mice. After tumour outgrowth to around 200-250 mm^3, mice were randomized to control or treatment groups. The DOX group was provided drinking water with 200 μg/ml doxycycline. DOX-containing water was refreshed weekly. Control mice received regular drinking water ad lib. Mice were screened regularly to follow tumour formation and were sacrificed before tumour reached 1500 mm^3. All animal experiments were conducted under the institutional guidelines and according to the law and approved in DAG155 by the AMC animal ethics committee."}, "IMR32 cells (ADRN-type)": {"test_system": "IMR32 cells (ADRN-type)", "assay": "3D spheroid co-culture of SK-N-AS-TRAIL cells with IMR32-GFP cells", "assay_type": "cell-based, human", "details": "doxycycline-induced TRAIL expression, 48 hours, 3D model", "procedure": "as §1"}, "SH-SY5Y xenografts": {"test_system": "SH-SY5Y xenografts", "assay": "SH-SY5Y xenograft tumour growth", "assay_type": "in vivo, NMRI-Foxn1nu/nu mice", "details": "TRAIL 150 μg/day I.P. 4 weeks; Lorlatinib 5 mg/kg twice a day oral 6 weeks; or both", "procedure": "For tumour growth assays, 5×10^6 SH-SY5Y cells were suspended in 200 μl of a 50% Matrigel (BD, 354234) solution in PBS and subcutaneously injected in NMRI-Foxn1nu/nu mice (NKI; Janvier). After tumour outgrowth to around 200-250 mm^3, mice were randomized to control or treatment groups. The control group received 150 μl PBS daily intraperitoneally (I.P.) for 4 weeks (day 1-day 28). The TRAIL group received 150 μg/day through I.P. for 4 weeks (day 1-day 28). The Lorlatinib group received 5 mg/kg twice a day through oral gavage for 6 weeks (day 1-day 42) and 4 weeks (day 29-day 56) of PBS (150 μl/day I.P.). The combination group received Lorlatinib twice a day for 6 weeks (day 1-day 42) and 4 weeks TRAIL (day 29-day 56). Tumour size was measured three times a week. Mice were sacrificed at the humane endpoint (tumor size >1500 mm^3), the tumours were isolated and divided in two parts. One tumour piece was fresh frozen in liquid nitrogen and RNA was isolated using Trizol reagent. The other tumour piece was fixed in 4% (w/v) buffered formaldehyde (Klinipath) and embedded in paraffin for histological analyses. In vivo experiments were conducted at the NKI therapeutical intervention unit after ethical approval from the animal experiments committee of the NKI was obtained (AvD:30100 2015 407 appendix 1; WP8156)."}, "SK-N-AS-TRAIL cells": {"test_system": "SK-N-AS-TRAIL cells", "assay": "Apoptosis of SK-N-AS-TRAIL cells after doxycycline-induced TRAIL expression in vitro", "assay_type": "cell-based, human", "details": "doxycycline-induced membrane TRAIL expression, 300 ng/ml doxycycline", "procedure": "The SK-N-AS cell line with inducible TRAIL expression was generated by cloning human TRAIL from pUNO1-hTRAILa vector (InvivoGen) into the lentiviral pINDUCER (pIND) system (Invitrogen). Expression of the TRAIL transgene was induced by the addition of doxycycline to the culture medium at a final concentration of 300 ng/ml. SH-SY5Y-GFP, IMR-GFP and SH-EP2-GFP were generated by lentiviral (pLenti, Invitrogen) transduction of turboGFP (SHC003, Sigma) and SH-EP2-RFP by lentiviral (pLenti, invitrogen) transduction of near-infrared fluorescent protein NirFP (Evrogen). […]\nTo determine the effect of doxycycline-induced TRAIL expression on SK-N-AS cells, 150.000 SK-N-AS-TRAIL cells were seeded in triplicate in 6 well/plates in 2 ml medium supplemented with or without 300 ng/ml doxycycline. Cell number was determined using a coulter counter (Beckman) at every 3rd or 4th day and cells were reseeded at similar cell number as at the start until the end of the experiment. The proliferation factor was defined as the ratio of the cells counted and the cells plated.\nSub-G1 fractions were determined after 72 hours treatment with 300 ng/ml doxycycline. […] After 1 hour incubation, DNA content of the nuclei was analysed using a Accuri C6 flow cytometer (BD biosciences). The cell cycle distribution and apoptotic sub G1 fraction was determined using BD Accuri C6 software."}}, "data": [{"molecule": "CCc1cc2c(cc1N1CCC(N3CCOCC3)CC1)C(C)(C)c1[nH]c3cc(C#N)ccc3c1C2=O", "note": "[Alectinib, reference compound]", "values": [{"measurement": "Sensitivity to Alectinib (cell survival)", "setting": "[1]; isogenic pair with mutant ALK, MES-type cells, 120 hours", "value": "resistance"}, {"measurement": "Sensitivity to Alectinib (cell survival)", "setting": "[2]; isogenic pair with mutant ALK, ADRN-type cells, 120 hours", "value": "preferential killing"}]}, {"molecule": "TRAIL: TNF-related apoptosis-inducing ligand; recombinant soluble human TRAIL (Peprotech; His-tagged for in vivo); also doxycycline-induced transgene in SK-N-AS-TRAIL cells (protein, UniProt P50591 39-281, looked up, extracellular domain His tag, TNF-related apoptosis-inducing ligand; recombinant soluble human TRAIL (Peprotech; His-tagged for in vivo); also doxycycline-induced transgene in SK-N-AS-TRAIL cells) extracellular domain: TNELKQMQDKYSKSGIACFLKEDDSYWDPNDEESMNSPCWQVKWQLRQLVRKMILRTSEETISTVQEKQQNISPLVRERGPQRVAAHITGTRGRSNTLSSPNSKNEKALGRKINSWESSRSGHSFLSNLHLRNGELVIHEKGFYYIYSQTYFRFQEEIKENTKNDKQMVQYIYKYTSYPDPILLMKSARNSCWSKDAEYGLYSIYQGGIFELKENDRIFVSVTNEHLIDMDHEASFFGAFLVG", "values": [{"measurement": "Sensitivity to TRAIL (cell viability)", "setting": "[1]; four isogenic pairs, MES cells, 72 hours of TRAIL treatment", "value": "efficiently killed"}, {"measurement": "Effect on ADRN population (SH-SY5Y-GFP)", "setting": "[3]; Lorlatinib 5 μM or TRAIL 100 ng/ml", "value": "reduction of the ADRN population"}, {"measurement": "Effect on MES population (SH-EP2-RFP)", "setting": "[3]; TRAIL 100 ng/ml", "value": "strongly reduced"}, {"measurement": "Killing of co-cultured MES-type SH-EP2 cells", "setting": "SH-EP2 cells (MES-type)", "value": "killed"}, {"measurement": "Cell killing by single-agent treatment", "setting": "[4]", "value": "partly killed"}, {"measurement": "Tumour response of established tumours", "setting": "SK-N-AS-TRAIL xenografts", "value": "complete regression"}, {"measurement": "Killing of co-cultured ADRN-type IMR32 cells", "setting": "IMR32 cells (ADRN-type)", "value": "not"}, {"measurement": "Sensitivity to TRAIL (cell viability)", "setting": "[2]; four isogenic pairs, ADRN cells, 72 hours of TRAIL treatment", "value": "unaffected"}, {"measurement": "Tumour growth response during treatment", "setting": "SH-SY5Y xenografts", "value": "did not inhibit tumour growth"}, {"measurement": "Apoptosis of SK-N-AS-TRAIL cells", "setting": "SK-N-AS-TRAIL cells", "value": "apoptosis of a large proportion of the cells"}]}]}
